Measurements: publication PMC3939451

Experiments:
[1] = CHX chase, immunoblot, percent remaining; conditions: glycan lost; control: WT-ABCG8
[2] = steady-state immunoblot, HEK293; conditions: glycan lost

Protein | degradation_or_half_life [1] | expression_or_secretion ([2]; control: WT-ABCG8) | expression_or_secretion ([2]; control: WT-ABCG5)
ABCG8: N619Q (protein) parent chain: MAGKAAEERGLPKGATPQDTSGLQDRLFSSESDNSLYFTYSGQPNTLEVRDLNYQVDLASQVPWFEQLAQFKMPWTSPSCQNSCELGIQNLSFKVRSGQMLAIIGSSGCGRASLLDVITGRGHGGKIKSGQIWINGQPSSPQLVRKCVAHVRQHNQLLPNLTVRETLAFIAQMRLPRTFSQAQRDKRVEDVIAELRLRQCADTRVGNMYVRGLSGGERRRVSIGVQLLWNPGILILDEPTSGLDSFTAHNLVKTLSRLAKGNRLVLISLHQPRSDIFRLFDLVLLMTSGTPIYLGAAQHMVQYFTAIGYPCPRYSNPADFYVDLTSIDRRSREQELATREKAQSLAALFLEKVRDLDDFLWKAETKDLDEDTCVESSVTPLDTNCLPSPTKMPGAVQQFTTLIRRQISNDFRDLPTLLIHGAEACLMSMTIGFLYFGHGSIQLSFMDTAALLFMIGALIPFNVILDVISKCYSERAMLYYELEDGLYTTGPYFFAKILGELPEHCAYIIIYGMPTYWLANLRPGLQPFLLHFLLVWLVVFCCRIMALAAAALLPTFHMASFFSNALYNSFYLAGGFMINLSSLWTVPAWISKVSFLRWCFEGLMKIQFSRRTYKMPLGNLTIAVSGDKILSVMELDSYPLYAIYLIVIGLSGGFMVLYYVSLRFIKQKPSQDW | decreases, 44.40% vs. 43.95% at 2 hrs; 26.01% vs. 29.36% at 4 hrs | decreases | –
ABCG5: N584Q (protein) parent chain: MGDLSSLTPGGSMGLQVNRGSQSSLEGAPATAPEPHSLGILHASYSVSHRVRPWWDITSCRQQWTRQILKDVSLYVESGQIMCILGSSGSGKTTLLDAMSGRLGRAGTFLGEVYVNGRALRREQFQDCFSYVLQSDTLLSSLTVRETLHYTALLAIRRGNPGSFQKKVEAVMAELSLSHVADRLIGNYSLGGISTGERRRVSIAAQLLQDPKVMLFDEPTTGLDCMTANQIVVLLVELARRNRIVVLTIHQPRSELFQLFDKIAILSFGELIFCGTPAEMLDFFNDCGYPCPEHSNPFDFYMDLTSVDTQSKEREIETSKRVQMIESAYKKSAICHKTLKNIERMKHLKTLPMVPFKTKDSPGVFSKLGVLLRRVTRNLVRNKLAVITRLLQNLIMGLFLLFFVLRVRSNVLKGAIQDRVGLLYQFVGATPYTGMLNAVNLFPVLRAVSDQESQDGLYQKWQMMLAYALHVLPFSVVATMIFSSVCYWTLGLHPEVARFGYFSAALLAPHLIGEFLTLVLLGIVQNPNIVNSVVALLSIAGVLVGSGFLRNIQEMPIPFKIISYFTFQKYCSEILVVNEFYGLNFTCGSSNVSVTTNPMCAFTQGIQFIEKTCPGATSRFTMNFLILYSFIPALVILGIVVFKIRDHLISR | – | – | decreases
ABCG5: N584Q/N591Q (protein) parent chain: MGDLSSLTPGGSMGLQVNRGSQSSLEGAPATAPEPHSLGILHASYSVSHRVRPWWDITSCRQQWTRQILKDVSLYVESGQIMCILGSSGSGKTTLLDAMSGRLGRAGTFLGEVYVNGRALRREQFQDCFSYVLQSDTLLSSLTVRETLHYTALLAIRRGNPGSFQKKVEAVMAELSLSHVADRLIGNYSLGGISTGERRRVSIAAQLLQDPKVMLFDEPTTGLDCMTANQIVVLLVELARRNRIVVLTIHQPRSELFQLFDKIAILSFGELIFCGTPAEMLDFFNDCGYPCPEHSNPFDFYMDLTSVDTQSKEREIETSKRVQMIESAYKKSAICHKTLKNIERMKHLKTLPMVPFKTKDSPGVFSKLGVLLRRVTRNLVRNKLAVITRLLQNLIMGLFLLFFVLRVRSNVLKGAIQDRVGLLYQFVGATPYTGMLNAVNLFPVLRAVSDQESQDGLYQKWQMMLAYALHVLPFSVVATMIFSSVCYWTLGLHPEVARFGYFSAALLAPHLIGEFLTLVLLGIVQNPNIVNSVVALLSIAGVLVGSGFLRNIQEMPIPFKIISYFTFQKYCSEILVVNEFYGLNFTCGSSNVSVTTNPMCAFTQGIQFIEKTCPGATSRFTMNFLILYSFIPALVILGIVVFKIRDHLISR | – | – | decreases
ABCG5: N591Q (protein) parent chain: MGDLSSLTPGGSMGLQVNRGSQSSLEGAPATAPEPHSLGILHASYSVSHRVRPWWDITSCRQQWTRQILKDVSLYVESGQIMCILGSSGSGKTTLLDAMSGRLGRAGTFLGEVYVNGRALRREQFQDCFSYVLQSDTLLSSLTVRETLHYTALLAIRRGNPGSFQKKVEAVMAELSLSHVADRLIGNYSLGGISTGERRRVSIAAQLLQDPKVMLFDEPTTGLDCMTANQIVVLLVELARRNRIVVLTIHQPRSELFQLFDKIAILSFGELIFCGTPAEMLDFFNDCGYPCPEHSNPFDFYMDLTSVDTQSKEREIETSKRVQMIESAYKKSAICHKTLKNIERMKHLKTLPMVPFKTKDSPGVFSKLGVLLRRVTRNLVRNKLAVITRLLQNLIMGLFLLFFVLRVRSNVLKGAIQDRVGLLYQFVGATPYTGMLNAVNLFPVLRAVSDQESQDGLYQKWQMMLAYALHVLPFSVVATMIFSSVCYWTLGLHPEVARFGYFSAALLAPHLIGEFLTLVLLGIVQNPNIVNSVVALLSIAGVLVGSGFLRNIQEMPIPFKIISYFTFQKYCSEILVVNEFYGLNFTCGSSNVSVTTNPMCAFTQGIQFIEKTCPGATSRFTMNFLILYSFIPALVILGIVVFKIRDHLISR | – | – | decreases
